Results as given in patent US20200054764A1, “MEDICAL USE OF ANTI-C MET ANTIBODY-CYTOTOXIC DRUG CONJUGATE” (priority 2016, published 2020).

Experiments:
[1] = molecular target: T1, human c-Met-His (Homo sapiens, UniProt P08581); assay: ELISA binding of c-Met antibody to c-Met antigen; conditions: humanized antibody
T1 construct: His tag (6xHis) (C); made in house; host or cells: 293F cells (Invitrogen, Cat # R790-07); vector pEE6.4; c-Met gene template origene RC217003
Description: This experiment uses enzyme linked immunosorbent assay to detect affinity of c-Met antibody (including supermatant of hybridonma or recombinant expressed monoclonal antibodies) to c-Met antigen in vitro.
Experimental procedures: Coating buffer (PBS; Hyclone, Cat No.: SH30256.01B) was used to dilute antigen (human c-Met-His, example 1) to 2 μg/mL, which was added to a 96-well microplate at 100 μL/well (Costar 9018, Cat No.:03113024) and incubated overnight at 4° C. […] The plate was read with plate reader at 450 nm.
Murine anti-human c-Met monoclonal cell lines were obtained by immunizing mice, fusion of spleen cells, and screening of hybridomas. […] After the first booster immunization, mice serum was collected during 7 to 10 days after each booster immunization, and the titer was detected by ELISA (Methods were described in Example 2).
After immunization, mice with a serum titer higher than 1:10^5 were selected for cell fusion. Mouse B-cells and myeloma cells (SP2/0, ATCC number:CRL-1581™) were prepared respectively in aseptic conditions and counted. […] The next day, positive clones were detected by ELISA (see Methods in Example 2).

[2] = Biophysical stability: deamination by LC-MS; format: physicochemical; conditions: 4° C., 3.5 months
Description: To evaluate the biophysical stability of the anti c-Met antibodies of the invention, such as the presence of glycosylation and deamination sites and stability, LC-MS analysis was used.
The molecular weight of the heavy and light chains was directly detected by LC-MS to analyze glycosylation. Deamination was analyzed by LC-MS at 4° C. for long time (at least 3 months), or at 40° C. for 21 days under an accelerated condition. Samples treated with different conditions were diluted to 2 mg/mL with pH 7.2 Tris-HCl; final concentrations of 10 mM of TCEP and 6M of urea (AMRESCO, Cat #0378)3 were added, then the samples were incubated for 20 minutes at 37° C. IAA (Sigma-Aldrich, Cat # I1149) with a final concentration of 20 mM was added and was incubated for 15 minutes in darkness to protect the sulfhydryl group. The pH of the sample was adjusted by dilution with Tris-HCl, pH 7.2, and protease (Sigma-Aldrich, Cat # T6567) was added at a ratio by weight of 10:1 (protein: enzyme). The samples were incubated at 37° C. for 25 minutes, and then formic acid with a final concentration of 0.1% (Fluca, Cat #94318) was added to terminate the reactions. Samples were centrifuged and analyzed by LC-MS.
BiopharmaLynx was used to analyze the presence of deamination. […] Peak area was obtained by integration, and the percentages of deamination and oxidation product were calculated.

T1 sequence (P08581 with tags, fused parts or gaps limits assumed): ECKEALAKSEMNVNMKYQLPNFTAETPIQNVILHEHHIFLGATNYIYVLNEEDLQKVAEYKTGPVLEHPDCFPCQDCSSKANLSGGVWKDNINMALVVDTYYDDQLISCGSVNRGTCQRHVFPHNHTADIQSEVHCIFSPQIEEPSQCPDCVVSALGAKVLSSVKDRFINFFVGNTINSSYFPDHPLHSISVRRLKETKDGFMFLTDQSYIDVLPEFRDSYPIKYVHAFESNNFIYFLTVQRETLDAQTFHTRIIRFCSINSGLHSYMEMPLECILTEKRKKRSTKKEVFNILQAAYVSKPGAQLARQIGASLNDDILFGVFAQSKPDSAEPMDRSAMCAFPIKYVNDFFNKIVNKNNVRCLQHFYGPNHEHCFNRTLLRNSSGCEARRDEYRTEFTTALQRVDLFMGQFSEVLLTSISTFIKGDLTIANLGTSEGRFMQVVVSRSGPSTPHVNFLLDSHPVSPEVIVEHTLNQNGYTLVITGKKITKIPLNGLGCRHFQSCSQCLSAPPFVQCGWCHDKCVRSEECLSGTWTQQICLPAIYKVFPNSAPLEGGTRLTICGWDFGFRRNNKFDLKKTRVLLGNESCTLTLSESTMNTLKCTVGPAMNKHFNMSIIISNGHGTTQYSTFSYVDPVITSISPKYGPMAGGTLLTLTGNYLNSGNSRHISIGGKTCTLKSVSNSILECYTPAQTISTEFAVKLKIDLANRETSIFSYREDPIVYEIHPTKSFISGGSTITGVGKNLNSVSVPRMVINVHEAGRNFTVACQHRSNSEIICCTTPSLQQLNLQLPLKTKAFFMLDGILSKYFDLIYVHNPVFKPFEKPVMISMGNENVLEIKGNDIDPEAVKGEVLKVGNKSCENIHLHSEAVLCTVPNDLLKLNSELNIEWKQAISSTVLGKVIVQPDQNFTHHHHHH

B1: Ab-9 (antibody)
heavy: QVTLKESGPVLVKPTETLTLTCTVSGFSLPNYGVHWVRQPPGKALEWLAVIWSGGSTNYAAAFVSRLRISKDTSKSQVVFTMNNMDPVDTATYYCARNHDNPYNYAMDYWGQGTTVTVSSASTKGPSVFPLAPCSRSTSESTAALGCLVKDYFPEPVTVSWNSGALTSGVHTFPAVLQSSGLYSLSSVVTVPSSNFGTQTYTCNVDHKPSNTKVDKTVERKCCVECPPCPAPPVAGPSVFLFPPKPKDTLMISRTPEVTCVVVDVSHEDPEVQFNWYVDGVEVHNAKTKPREEQFNSTFRVVSVLTVVHQDWLNGKEYKCKVSNKGLPAPIEKTISKTKGQPREPQVYTLPPSREEMTKNQVSLTCLVKGFYPSDIAVEWESNGQPENNYKTTPPMLDSDGSFFLYSKLTVDKSRWQQGNVFSCSVMHEALHNHYTQKSLSLSPGK
light: DIVLTQSPASLAVSPGQRATITCRANKSVSTSTYNYLHWYQQKPGQPPKLLIYLASNLASGVPARFSGSGSGTDFTLTINPVEANDTANYYCQHSRDLPPTFGQGTKLEIKRTVAAPSVFIFPPSDEQLKSGTASVVCLLNNFYPREAKVQWKVDNALQSGNSQESVTEQDSKDSTYSLSSTLTLSKADYEKHKVYACEVTHQGLSSPVTKSFNRGEC
For B1, the EC50 [1] was 130 pM and the “Analysis of deamination: percentage of deaminated molecules” value [2] was 0.66%.
